Results from publication PMC6365974, “Characterization of an Aldehyde Oxidoreductase From the Mesophilic Bacterium Aromatoleum aromaticum EbN1, a Member of a New Subfamily of Tungsten-Containing Enzymes” (Frontiers in Microbiology, 2019).
Values belong to the molecule of their own block, whether it stands above or below them.

Legend:
[1] = test system: c1ccc(C[n+]2ccc(-c3cc[n+](Cc4ccccc4)cc3)cc2)cc1; assay: purified protein; settings: artificial electron acceptor, phenylacetaldehyde as co-substrate, 100 mM Tris-HCl pH 8.0, 28°C, probably reacts at an Fe-S cluster
[2] = target: T1, AORAa (Aromatoleum aromaticum, UniProt Q5P143); assay: flavin fluorescence of supernatant of heat-denatured enzyme, phosphodiesterase treatment; type: binding; settings: co-purified cofactor; site AorC (predicted)
T1 construct: gene aorB; native heterohexamer α2β2γ2, ca. 280 kDa (subunits 66, 46, 17 kDa), purified from phenylalanine-grown Δpdh cells, no tag; with Iron-sulfur protein, aldehyde oxidoreductase small subunit AorA

[3] = target: T2, AorB, large W-cofactor binding subunit of aldehyde oxidoreductase AORAa from Aromatoleum aromaticum EbN1 (Aromatoleum aromaticum EbN1, UniProt Q5P143 1-616); assay: co-purification by enzyme activity (DEAE-sepharose, hydroxyapatite, Superdex 200 gel filtration); endogenous enzyme purified from cell extract under anoxic conditions, followed by AOR activity; subunits separated by SDS-PAGE and identified by MALDI-TOF of tryptic fragments; settings: partners not purified
T2 construct: AorB, large subunit (66 kDa on SDS-PAGE) of the tungsten-containing aldehyde oxidoreductase of Aromatoleum aromaticum EbN1; also called large subunit; aorB gene product; source: purified from A. aromaticum EbN1 strain SR7Δpdh as part of AORAa (DEAE-sepharose, hydroxyapatite, Superdex 200)
T2 sequence (looked up): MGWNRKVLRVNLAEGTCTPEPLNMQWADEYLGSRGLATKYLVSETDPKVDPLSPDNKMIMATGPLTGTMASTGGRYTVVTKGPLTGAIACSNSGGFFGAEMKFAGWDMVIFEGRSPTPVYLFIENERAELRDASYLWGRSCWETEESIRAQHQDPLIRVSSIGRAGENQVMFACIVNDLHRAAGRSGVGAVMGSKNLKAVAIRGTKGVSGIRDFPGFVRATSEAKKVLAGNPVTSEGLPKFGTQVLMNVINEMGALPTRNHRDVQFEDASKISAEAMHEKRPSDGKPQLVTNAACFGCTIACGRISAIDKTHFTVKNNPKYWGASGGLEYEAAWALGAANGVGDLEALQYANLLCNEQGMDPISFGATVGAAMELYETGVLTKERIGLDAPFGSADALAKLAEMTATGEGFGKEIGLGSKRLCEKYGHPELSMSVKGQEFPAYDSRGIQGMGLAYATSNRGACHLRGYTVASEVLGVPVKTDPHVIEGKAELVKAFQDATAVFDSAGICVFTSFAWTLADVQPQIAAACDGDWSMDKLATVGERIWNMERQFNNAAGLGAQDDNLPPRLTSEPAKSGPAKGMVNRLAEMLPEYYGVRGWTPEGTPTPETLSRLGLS

[4] = substrate: O=CCc1ccccc1; assay: purified protein; settings: electron acceptor benzyl viologen, 100 mM Tris-HCl pH 8.0, 28°C, site AorB (W-cofactor, predicted)
[5] = substrate: O=Cc1ccccc1; assay: purified protein; settings: electron acceptor benzyl viologen, 100 mM Tris-HCl pH 8.0, 28°C, site AorB (W-cofactor, predicted)
[6] = substrate: CC=O; assay: purified protein; settings: electron acceptor benzyl viologen, 100 mM Tris-HCl pH 8.0, 28°C, site AorB (W-cofactor, predicted)
[7] = substrate: NC(=O)c1ccc[n+]([C@@H]2O[C@H](COP(=O)(O)OP(=O)(O)OC[C@H]3O[C@@H](n4cnc5c(N)ncnc54)[C@H](O)[C@@H]3O)[C@@H](O)[C@H]2O)c1; assay: purified protein; type: biochemical, Aromatoleum aromaticum; settings: electron acceptor, phenylacetaldehyde as co-substrate, 100 mM Tris-HCl pH 8.0, 28°C, site AorC (FAD, predicted)

Molecule: AORAa (Aromatoleum aromaticum EbN1)
- Km [1]: 23 µM
- Vmax [1]: 21.2 µmol/min/mg
- kcat [1]: 91 s⁻¹
- kcat/Km [1]: 3.96e+06 M⁻¹ s⁻¹

Molecule: Cc1cc2nc3c(=O)[nH]c(=O)nc-3n(C[C@H](O)[C@H](O)[C@H](O)COP(=O)(O)OP(=O)(O)OC[C@H]3O[C@@H](n4cnc5c(N)ncnc54)[C@H](O)[C@@H]3O)c2cc1C [FAD]
- flavin fluorescence of supernatant of heat-denatured enzyme, phosphodiesterase t [2]: The presence of FAD in AORAa was confirmed by fluorescence spectroscopy

- binding result [3]: binds
B1: AorC, medium FAD-containing subunit of aldehyde oxidoreductase AORAa from Aromatoleum aromaticum EbN1 (natural protein, UniProt Q5P142 1-424, looked up)
chain: MKHVILGNGPAGVIAAETLRRAAPTDDILLFGSEDAPPYSRMAIPYLLEGNIDESGTWLRKSPGHFDRLRIHEMRGRAVSLDSERRRILFDDGHFESWDRLLIATGSHPVRPPIPGIDLPEVQTCWTLEDARAIARFATPGARVLQLGAGFIGCIIMEALAARGVELTVVEMGDRMVPRMMTPTAGGMIRKWVEDQGVRVVTNAGVSRIDCRASNDAPLDVTLSTGEVVVADLVIVAAGVAPNIAFLEATPVHVAKGVLVDDRLQTSVPGIFAAGDVAEAPDLFTGAHLVAAIQPNAADQARVAALNMAGHEARLKGVLAINVLDTLGLISSSFGQWWGEERERGGAGVEHVDEAAYRYLSLQFKDDVLIGATSIGLTEHVGALRGLIHGRVRLGEWKERLLHSPLQFVDAYIARSQQPMALVR
notes: AorC, medium-sized subunit (46 kDa on SDS-PAGE) of the tungsten-containing aldehyde oxidoreductase of Aromatoleum aromaticum EbN1; predicted FAD-containing; also called medium subunit; medium-sized subunit; source: purified from A. aromaticum EbN1 strain SR7Δpdh as part of AORAa (DEAE-sepharose, hydroxyapatite, Superdex 200)

B2: AORAa (Aromatoleum aromaticum EbN1) (protein)
chain: MGWNRKVLRVNLAEGTCTPEPLNMQWADEYLGSRGLATKYLVSETDPKVDPLSPDNKMIMATGPLTGTMASTGGRYTVVTKGPLTGAIACSNSGGFFGAEMKFAGWDMVIFEGRSPTPVYLFIENERAELRDASYLWGRSCWETEESIRAQHQDPLIRVSSIGRAGENQVMFACIVNDLHRAAGRSGVGAVMGSKNLKAVAIRGTKGVSGIRDFPGFVRATSEAKKVLAGNPVTSEGLPKFGTQVLMNVINEMGALPTRNHRDVQFEDASKISAEAMHEKRPSDGKPQLVTNAACFGCTIACGRISAIDKTHFTVKNNPKYWGASGGLEYEAAWALGAANGVGDLEALQYANLLCNEQGMDPISFGATVGAAMELYETGVLTKERIGLDAPFGSADALAKLAEMTATGEGFGKEIGLGSKRLCEKYGHPELSMSVKGQEFPAYDSRGIQGMGLAYATSNRGACHLRGYTVASEVLGVPVKTDPHVIEGKAELVKAFQDATAVFDSAGICVFTSFAWTLADVQPQIAAACDGDWSMDKLATVGERIWNMERQFNNAAGLGAQDDNLPPRLTSEPAKSGPAKGMVNRLAEMLPEYYGVRGWTPEGTPTPETLSRLGLS
- Km [4]: 82 µM
- Vmax [4]: 18.9 µmol/min/mg
- kcat [4]: 81 s⁻¹
- kcat/Km [4]: 990000 M⁻¹ s⁻¹
- Km [5]: 67 µM
- Vmax [5]: 21.4 µmol/min/mg
- kcat [5]: 92 s⁻¹
- kcat/Km [5]: 1.38e+06 M⁻¹ s⁻¹
- Km [6]: 141 µM
- Vmax [6]: 23.8 µmol/min/mg
- kcat [6]: 103 s⁻¹
- kcat/Km [6]: 730000 M⁻¹ s⁻¹
- Km [7]: 63 µM
- Vmax [7]: 12.5 µmol/min/mg
- kcat [7]: 54 s⁻¹
- kcat/Km [7]: 860000 M⁻¹ s⁻¹

- binding result [3]: binds
B3: AorA, small subunit of aldehyde oxidoreductase AORAa from Aromatoleum aromaticum EbN1 (natural protein, UniProt Q5P144 1-158, looked up)
chain: MWKSLHIDPAKCTGCLQCEMACSYEHTGVINPSKSRIKVFSFEHEGRKVPYTCTQCTEAWCLHSCPVDAIRLDLTTGAKMVFEDTCVGCKVCTIACPFGTINYNQDTGKVQKCDLCEGDPACAKACPTAAITYIDADWTGLARMQAWAAKANTPASAA
notes: AorA, small subunit (17 kDa on SDS-PAGE) of the tungsten-containing aldehyde oxidoreductase of Aromatoleum aromaticum EbN1; predicted to contain four [Fe4S4] clusters; also called electron transfer subunit; aorA gene product; source: purified from A. aromaticum EbN1 strain SR7Δpdh as part of AORAa (DEAE-sepharose, hydroxyapatite, Superdex 200)
